Target: human CTLA-4 (human, UniProt P16410)
Experiment: BLI

Chain of human CTLA-4 (P16410 36-161): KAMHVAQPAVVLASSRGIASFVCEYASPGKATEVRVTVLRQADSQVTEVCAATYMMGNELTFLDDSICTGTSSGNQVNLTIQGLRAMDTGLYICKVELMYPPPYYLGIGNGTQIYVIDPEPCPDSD

B1: GBD008-hS005 (designed binder)
chain: QVQLVESGGGLVEAGGSLRLSCATSGRTASSNAMAWFRQAPGKEREFVAAISATGGLTAYADSVKGRFTISRDNSKNAVYLQMNTLKPEDTAVYIGAVGRERWYLRHTENEYDYWGRGAQVTVSS
Kd: 0.269 nM

B2: GBD008-hS005-5 (designed binder)
chain: EVQLVESGGGLVQPGGSLRLSCAASGRTASSNAMAWFRQAPGKEREFVSAISATGGLTAYADSVKGRFTISRDNSKNTLYLQMNSLRAEDTAVYIGAVGRERWYLRHTENEYDYWGQGTLVTVSS
Kd: 0.155 nM

Reference: patent publication US20260374871 (published 2026)
